Assay results reported in article PMC11046454.

Legend:
[1] = tested on: anti-FITC CAR (E2 scFv, CD8a hinge/TM, 4-1BB, CD3zeta) on CAR-J Jurkat or CAR-T cells (synthetic construct); assay: flow cytometry, CAR-T cells; settings: via FITC; Cells 1e6/mL in DPBS, 1% FBS, 5 mM MgCl2, 4 C, 30 min; flow cytometry (pH 6.5 or 7.4 for i-motif; 1 mM ATP where stated)
[2] = tested on: anti-FITC CAR (E2 scFv, CD8a hinge/TM, 4-1BB, CD3zeta) on CAR-J Jurkat or CAR-T cells (synthetic construct); assay: flow cytometry, CAR-J cells; settings: via FITC; Cells 1e6/mL in DPBS, 1% FBS, 5 mM MgCl2, 4 C, 30 min; flow cytometry (pH 6.5 or 7.4 for i-motif; 1 mM ATP where stated)

Work on “ACATTCCTAAGTCTGAAACATTACAGCTTGCTACACGAGAAGAGCCGCCATAGTA / TTTATCACCAGGCAGTTGACAGTGTAGCAAGCTGTAATAGATGCGAGGGTCCAATAC / TTTCAACTGCCTGGTGATAAAACGACACTACGTGGGAATCTACTATGGCGGCTCTTC / TTTTCAGACTTAGGAATGTGCTTCCCACGTAGTGTCGTTTGTATTGGACCCTCGCAT [FITC-TDN-Cy5]” yielded a binding signal (fold vs ssDNA) [1] of 3.
With “TTTTTTTTTTTTTTTTTTTTTTTTTTTTTTTTTTTTTTTT [FITC-DNA-Cy5]” the Kd [2] was 26.4 nM.
